Experimental data from paper doi:10.1101/2024.05.17.594765.

B1: C-terminally Halo-tagged full-length zyxin (zyxin-Halo) [modified: Janelia Fluor 646 Halo-ligand conjugated to the Halo tag; Janelia Fluor 646 Halo-ligand conjugated to the Halo tag] [human] / C-terminally … (parent)
chain 1: MSETVICSSRATVMLYDDGNKRWLPAGTGPQAFSRVQIYHNPTANSFRVVGRKMQPDQQVVINCAIVRGVKYNQATPNFHQWRDARQVWGLNFGSKEDAAQFAAGMASALEALEGGGPPPPPALPTWSVPNGPSPEEVEQQKRQQPGPSEHIERRVSNAGGPPAPPAGGPPPPPGPPPPPGPPPPPGLPPSGVPAAAHGAGGGPPPAPPLPAAQGPGGGGAGAPGLAAAIAGAKLRKVSKQEEASGGPTAPKAESGRSGGGGLMEEMNAMLARRRKATQVGEKTPKDESANQEEPEARVPAQSESVRRPWEKNSTTLPRMKSSSSVTTSETQPCTPSSSDYSDLQRVKQELLEEVKKELQKVKEEIIEAFVQELRKRGSP
chain 2: MAAPRPSPAISVSVSAPAFYAPQKKFGPVVAPKPKVNPFRPGDSEPPPAPGAQRAQMGRVGEIPPPPPEDFPLPPPPLAGDGDDAEGALGGAFPPPPPPIEESFPPAPLEEEIFPSPPPPPEEEGGPEAPIPPPPQPREKVSSIDLEIDSLSSLLDDMTKNDPFKARVSSGYVPPPVATPFSSKSSTKPAAGGTAPLPPWKSPSSSQPLPQVPAPAQSQTQFHVQPQPQPKPQVQLHVQSQTQPVSLANTQPRGPPASSPAPAPKFSPVTPKFTPVASKFSPGAPGGSGSQPNQKLGHPEALSAGTGSPQPPSFTYAQQREKPRVQEKQHPVPPPAQNQNQVRSPGAPGPLTLKEVEELEQLTQQLMQDMEHPQRQNVAVNELCGRCHQPLARAQPAVRALGQLFHIACFTCHQCAQQLQGQQFYSLEGAPYCEGCYTDTLEKCNTCGEPITDRMLRATGKAYHPHCFTCVVCARPLEGTSFIVDQANRPHCVPDYHKQYAPRCSVCSEPIMPEPGRDETVRVVALDKNFHMKCYKCEDCGKPLSIEADDNGCFPLDGHVLCRKCHTARAQT

Variants of: B1
Assay: force reconstitution TIRF assay
Settings: with C-terminally Halo-tagged VASP (VASP-Halo) [modified: Janelia Fluor 549 Halo-ligand conjugated to the Halo tag, images were acquired every 1 s, read off a plot

screen value | Variant
38 | chain 2 F71A F93A F104A F114A

Variants of: B1
Assay: force reconstitution TIRF assay
Settings: with C-terminally Halo-tagged VASP (VASP-Halo) [modified: Janelia Fluor 549 Halo-ligand conjugated to the Halo tag, images were acquired every 1 s, read off a plot
Remark: another data set of the same source

screen value | Variant
2.6 s | chain 2 F71A F93A F104A F114A
